Assay results published in patent US8936806B2, “Periostin induces proliferation of cardiomyocytes and promotes cardiac regeneration” (Children's Medical Center Corporation, priority 2007, dated 2015).
Entries after “also recorded” stand apart in the source; their conditions may differ.

Legend:
[1] = system: primary adult rat ventricular cardiomyocytes; experiment: DNA synthesis (BrdU uptake, immunofluorescence) in primary adult rat ventricular cardiomyocytes; format: cell-based
Description: Primary neonatal rat ventricular cardiomyocytes were isolated using the Neomyts kit (Cellutron, Highland Park, N.J.), seeded at a density of 10^5 cells/cm^2 onto gelatin-coated cover slips, stimulated for 3 days, and labeled with BrdU for the terminal 2 days. Primary adult ventricular cardiomyocytes were isolated from male (300 gm) Wistar rats (Charles River Laboratories) and maintained as described (Engel, F. B. et al. p38 MAP kinase inhibition enables proliferation of adult mammalian cardiomyocytes. Genes Dev 19, 1175-87 (2005)). Adult cardiomyocytes were stimulated daily for 9 days and labeled with 30 μM BrdU for the terminal 3 days. Cardiomyocytes were stimulated with periostin (500 ng/mL) and FGF (100 ng/mL). […] The vehicle used to dissolve factors or chemicals was added to unstimulated samples, which were then processed together with the test samples. DNA-synthesis was analyzed by visualization of BrdU uptake and cytokinesis was determined by detection of the cleavage furrow and the midbody with an antibody against aurora B kinase as described (Engel, F. B. et al. p38 MAP kinase inhibition enables proliferation of adult mammalian cardiomyocytes. Genes Dev 19, 1175-87 (2005)). Signals were visualized with secondary antibodies conjugated to Alexa 488, Alexa 546, Alexa 594, and Alexa 647 (Invitrogen). […] For image acquisition, the value for γ was set at 1 and the lookup table settings were linear. Primary adult rat ventricular cardiomyocytes were grown on gridded cover slips (Electron Microscopy Services, Ft. Washington, Pa.) and imaged in phase contrast at 10× magnification. Cardiomyocytes were transduced with an adenovirus leading to nuclear expression of histone2B-GFP (Shi, Q. & King, R. W. Nature 437, 1038-42 (2005)) under control of the chicken troponin T promoter ([…]. Am J Physiol Cell Physiol 286, […]-64 (2004)). Nuclei were visualized at 10× magnification with a mercury-arc lamp dimmed to 1.5% with a neutral density filter. […] Images of BrdU-positive cardiomyocytes were matched with the corresponding images from before stimulation. For quantification, differentiated cardiomyocytes were defined as striated rod-shaped structures with length/width ratio>1.5.

[2] = system: differentiated cardiomyocytes; experiment: Hypertrophy by [3H]leucine uptake; format: cell-based, rat; settings: phenylephrine 10 mM [sic]; all time points tested
Description: Induction of the fetal gene program is accompanied by increased protein synthesis leading to cardiomyocyte hypertrophy. We assessed cardiomyocyte hypertrophy by measuring uptake of [^3H]leucine.

[3] = system: Adult male Sprague-Dawley rats; experiment: Rat model of myocardial infarction: echocardiography and catheterization; format: in vivo; settings: for Maximum left ventricular elastance / Maximum rate of left ventricular pressure rise / Preload-recruitable stroke work / Slope of end-systolic pressure-volume relationship: catheterization, 12 weeks
Method: Adult male Sprague-Dawley rats (300 gm, Charles River Laboratories) underwent experimental myocardial infarction as described (del Monte, F. et al. Abrogation of ventricular arrhythmias in a model of ischemia and reperfusion by targeting myocardial calcium cycling. Proc Natl Acad Sci USA 101, 5622-7 (2004)). The survival rate was 67%. Gelfoam loaded with 100 μg of recombinant periostin or with buffer were applied over the myocardial infarction at the time of surgery. Rats received 3 intraperitoneal BrdU injections (70 μmol/kg body weight) with a half-life of 2 hr every 48 hr over a period of 7 days. Echocardiography and hemodynamic catheterization were performed as described (Prunier, F. et al. Am J Physiol Heart Circ Physiol (2006)).

[4] = system: Adult male Sprague-Dawley rats; experiment: Cardiomyocyte cell cycle activity in vivo after intramyocardial injection; parameters: species or system rat; settings: dispersed isolated cardiomyocytes
[5] = system: primary neonatal rat ventricular cardiomyocytes; experiment: Cardiomyocyte apoptosis (TUNEL) and survival
Method: To determine cardiomyocyte proliferation, primary neonatal rat ventricular cardiomyocytes were quantified by counting with a hemocytometer after 3 days and 6 days of stimulation. To determine cardiomyocyte survival, primary neonatal rat ventricular cardiomyocytes were pre-treated with 500 ng/mL periostin or buffer for 30 min and then exposed to 0.5 μM doxycycline or 100 ng/mL TNFα for 24 hr and quantified by counting. Corresponding samples were stained with an antibody directed against tropomyosin as a cardiomyocyte marker to control for the percentage of differentiated cardiomyocytes. Apoptotic cardiomyocyte nuclei were determined after 24 hr with the In situ Cell Death Detection Kit (Roche, Indianapolis, Ind.) in combination with staining for troponin I.

[6] = H2B-GFP, after 6 days, 3 days BrdU labeling, stimulus not named in block (periostin section)
[7] = 12 weeks after MI, listed as Periostin

B1: periostin: Recombinant periostin, purified from HEK293 cells expressing the full-length human cDNA; secreted protein of 834 amino acids (Seq ID. No. 1) (protein, listed as Homo sapiens)
chain: MIPFLPMFSLLLLLIVNPINANNHYDKILAHSRIRGRDQGPNVCALQQILGTKKKYFSTCKNWYKKSICGQKTTVLYECCPGYMRMEGMKGCPAVLPIDHVYGTLGIVGATTTQRYSDASKLREEIEGKGSFTYFAPSNEAWDNLDSDIRRGLESNVNVELLNALHSHMINKRMLTKDLKNGMIIPSMYNNLGLFINHYPNGVVTVNCARIIHGNQIATNGVVHVIDRVLTQIGTSIQDFIEAEDDLSSFRAAAITSDILEALGRDGHFTLFAPTNEAFEKLPRGVLERFMGDKVASEALMKYHILNTLQCSESIMGGAVFETLEGNTIEIGCDGDSITVNGIKMVNKKDIVTNNGVIHLIDQVLIPDSAKQVIELAGKQQTTFTDLVAQLGLASALRPDGEYTLLAPVNNAFSDDTLSMVQRLLKLILQNHILKVKVGLNELYNGQILETIGGKQLRVFVYRTAVCIENSCMEKGSKQGRNGAIHIFREIIKPAEKSLHEKLKQDKRFSTFLSLLEAADLKELLTQPGDWTLFVPTNDAFKGMTSEEKEILIRDKNALQNIILYHLTPGVFIGKGFEPGVTNILKTTQGSKIFLKEVNDTLLVNELKSKESDIMTTNGVIHVVDKLLYPADTPVGNDQLLEILNKLIKYIQIKFVRGSTFKEIPVTVYTTKIITKVVEPKIKVIEGSLQPIIKTEGPTLTKVKIEGEPEFRLIKEGETITEVIHGEPIIKKYTKIIDGVPVEITEKETREERIITGPEIKYTRISTGGGETEETLKKLLQEEVTKVTKFIEGGDGHLFEDEEIKRLLQGDTPVRKLQANKKVQGSRRRLREGRSQ
[1]; 9 days periostin 500 ng/mL, vs non-stimulated
  increase of cardiomyocyte DNA synthesis: 14 fold
[1]; 9 days stimulation (periostin 500 ng/mL, FGF 100 ng/mL), BrdU terminal 3 days
  cardiomyocyte DNA synthesis: 1.1±0.2%
[1]; [6]
  BrdU-positive binucleated cardiomyocytes: 0.2±0.03%
  BrdU-positive mononucleated cardiomyocytes: 1.7±0.3%
[1]; time-course of stimulation
  start of periostin-induced cardiomyocyte DNA synthesis: 3 days
[2]
  [3H]leucine uptake (hypertrophy): did not induce uptake; also recorded: did not induce hypertrophy
[3]; 1 week after MI
  Ejection fraction: 53%
  End-diastolic dimension: 8.1 ± 0.4 mm
  End-systolic dimension: 6.1 ± 0.4 mm
[3]; 1 week after MI, periostin Gelfoam 100 μg
  Shortening fraction: 25%
[3]; 1 week after MI, periostin Gelfoam 100 μg, listed as Periostin
  Shortening fraction: 25.2 ± 2.1%
[3]; 1 week after MI, listed as Periostin
  Ejection fraction: 52.6 ± 2.9%
[3]; 12 weeks after MI
  Ejection fraction: 66%
  End-diastolic dimension: significantly smaller
  End-systolic dimension: 6 ± 0.5 mm
  Shortening fraction: 33%
[3]; [7]
  Ejection fraction: 65.9 ± 3.8%
  End-diastolic dimension: 8.4 ± 0.2 mm
  Shortening fraction: 33.0 ± 2.6%
[3]
  Maximum left ventricular elastance: higher
  Maximum rate of left ventricular pressure rise: higher
  Preload-recruitable stroke work: higher
  Slope of end-systolic pressure-volume relationship: steeper slope
[3]; listed as Periostin
  Maximum left ventricular elastance: 2.5 ± 1
  Maximum rate of left ventricular pressure rise: 4821 ± 513 mm Hg/s
  Preload-recruitable stroke work: 68.6 ± 13.9 mm Hg
  Slope of end-systolic pressure-volume relationship: 1.4 ± 0.2 mm Hg/μL
[4]
  H3P-positive mononucleated cardiomyocytes: 2±0.2%
[5]; 500 ng/mL pre-treatment, then doxorubicin or TNF-α 24 hr
  cardiomyocyte survival: not affected
[5]; FIG. 2L
  doxorubicin or TNF-α-induced cardiomyocyte death: did not reduce
[5]; TUNEL, 24 hr
  baseline and induced cardiomyocyte apoptosis: not affected
